From paper PMC4417627 (Biochemistry, 2013)
Read-outs that look alike come from different tables or passages of the source.

B1: 5xAla NEMO, recombinant full-length, C-terminal 6xHis (natural protein, human, UniProt Q9Y6K9 1-419, looked up)
chain: MNRHLWKSQLAEMVQPSGGPAADQDVLGEESPLGKPAMLHLPSEQGAPETLQRCLEENQELRDAIRQSNQILRERAEELLHFQASQREEKEFLMAKFQEARKLVERLGLEKLDLKRQKEQALREVEHLKRAQQQMAEDKASVKAQVTSLLGELQESQSRLEAATKEAQALEGRARAASEQARQLESEREALQQQHSVQVDQLRMQGQSVEAALRMERQAASEEKRKLAQLQVAYHQLFQEYDNHIKSSVVGSERKRGMQLEDLKQQLQQAEEALVAKQEVIDKLKEEAEQHKIVMETVPVLKAQADIYKADFQAERQAREKLAEKKELLQEQLEQLQREYSKLKASCQESARIEDMRKRHVEVSQAPLPPAPAYLSSPLALPSQRRSPPEEPPDFCCPKCQYQAPDMDTLQIHVMECIE
B2: 6xAla NEMO containing Cys76 (Cys76 added back into the 7xAla construct) (natural protein, human, UniProt Q9Y6K9 1-419, looked up)
chain: MNRHLWKSQLAEMVQPSGGPAADQDVLGEESPLGKPAMLHLPSEQGAPETLQRALEENQELRDAIRQSNQILRERCEELLHFQASQREEKEFLMAKFQEARKLVERLGLEKLDLKRQKEQALREVEHLKRAQQQMAEDKASVKAQVTSLLGELQESQSRLEAATKEAQALEGRARAASEQARQLESEREALQQQHSVQVDQLRMQGQSVEAALRMERQAASEEKRKLAQLQVAYHQLFQEYDNHIKSSVVGSERKRGMQLEDLKQQLQQAEEALVAKQEVIDKLKEEAEQHKIVMETVPVLKAQADIYKADFQAERQAREKLAEKKELLQEQLEQLQREYSKLKASAQESARIEDMRKRHVEVSQAPLPPAPAYLSSPLALPSQRRSPPEEPPDFCCPKCQYQAPDMDTLQIHVMECIE
B3: 6xAla NEMO containing Cys11 (Cys11 added back into the 7xAla construct) (natural protein, human, UniProt Q9Y6K9 1-419, looked up)
chain: MNRHLWKSQLCEMVQPSGGPAADQDVLGEESPLGKPAMLHLPSEQGAPETLQRALEENQELRDAIRQSNQILRERAEELLHFQASQREEKEFLMAKFQEARKLVERLGLEKLDLKRQKEQALREVEHLKRAQQQMAEDKASVKAQVTSLLGELQESQSRLEAATKEAQALEGRARAASEQARQLESEREALQQQHSVQVDQLRMQGQSVEAALRMERQAASEEKRKLAQLQVAYHQLFQEYDNHIKSSVVGSERKRGMQLEDLKQQLQQAEEALVAKQEVIDKLKEEAEQHKIVMETVPVLKAQADIYKADFQAERQAREKLAEKKELLQEQLEQLQREYSKLKASAQESARIEDMRKRHVEVSQAPLPPAPAYLSSPLALPSQRRSPPEEPPDFCCPKCQYQAPDMDTLQIHVMECIE
B4: 5xAla NEMO, full-length, expressed in NEMO-deficient mouse fibroblasts (natural protein, human, UniProt Q9Y6K9 1-419, looked up)
chain: MNRHLWKSQLAEMVQPSGGPAADQDVLGEESPLGKPAMLHLPSEQGAPETLQRCLEENQELRDAIRQSNQILRERAEELLHFQASQREEKEFLMAKFQEARKLVERLGLEKLDLKRQKEQALREVEHLKRAQQQMAEDKASVKAQVTSLLGELQESQSRLEAATKEAQALEGRARAASEQARQLESEREALQQQHSVQVDQLRMQGQSVEAALRMERQAASEEKRKLAQLQVAYHQLFQEYDNHIKSSVVGSERKRGMQLEDLKQQLQQAEEALVAKQEVIDKLKEEAEQHKIVMETVPVLKAQADIYKADFQAERQAREKLAEKKELLQEQLEQLQREYSKLKASCQESARIEDMRKRHVEVSQAPLPPAPAYLSSPLALPSQRRSPPEEPPDFCCPKCQYQAPDMDTLQIHVMECIE
B5: 6xAla NEMO containing Cys347 (Cys347 added back into the 7xAla construct) (natural protein, human, UniProt Q9Y6K9 1-419, looked up)
chain: MNRHLWKSQLAEMVQPSGGPAADQDVLGEESPLGKPAMLHLPSEQGAPETLQRALEENQELRDAIRQSNQILRERAEELLHFQASQREEKEFLMAKFQEARKLVERLGLEKLDLKRQKEQALREVEHLKRAQQQMAEDKASVKAQVTSLLGELQESQSRLEAATKEAQALEGRARAASEQARQLESEREALQQQHSVQVDQLRMQGQSVEAALRMERQAASEEKRKLAQLQVAYHQLFQEYDNHIKSSVVGSERKRGMQLEDLKQQLQQAEEALVAKQEVIDKLKEEAEQHKIVMETVPVLKAQADIYKADFQAERQAREKLAEKKELLQEQLEQLQREYSKLKASCQESARIEDMRKRHVEVSQAPLPPAPAYLSSPLALPSQRRSPPEEPPDFCCPKCQYQAPDMDTLQIHVMECIE
B6: 6xAla NEMO containing Cys54 (Cys54 added back into the 7xAla construct) (natural protein, human, UniProt Q9Y6K9 1-419, looked up)
chain: MNRHLWKSQLAEMVQPSGGPAADQDVLGEESPLGKPAMLHLPSEQGAPETLQRCLEENQELRDAIRQSNQILRERAEELLHFQASQREEKEFLMAKFQEARKLVERLGLEKLDLKRQKEQALREVEHLKRAQQQMAEDKASVKAQVTSLLGELQESQSRLEAATKEAQALEGRARAASEQARQLESEREALQQQHSVQVDQLRMQGQSVEAALRMERQAASEEKRKLAQLQVAYHQLFQEYDNHIKSSVVGSERKRGMQLEDLKQQLQQAEEALVAKQEVIDKLKEEAEQHKIVMETVPVLKAQADIYKADFQAERQAREKLAEKKELLQEQLEQLQREYSKLKASAQESARIEDMRKRHVEVSQAPLPPAPAYLSSPLALPSQRRSPPEEPPDFCCPKCQYQAPDMDTLQIHVMECIE
B7: 7xAla NEMO, recombinant full-length, C-terminal 6xHis (natural protein, human, UniProt Q9Y6K9 1-419, looked up)
chain: MNRHLWKSQLAEMVQPSGGPAADQDVLGEESPLGKPAMLHLPSEQGAPETLQRALEENQELRDAIRQSNQILRERAEELLHFQASQREEKEFLMAKFQEARKLVERLGLEKLDLKRQKEQALREVEHLKRAQQQMAEDKASVKAQVTSLLGELQESQSRLEAATKEAQALEGRARAASEQARQLESEREALQQQHSVQVDQLRMQGQSVEAALRMERQAASEEKRKLAQLQVAYHQLFQEYDNHIKSSVVGSERKRGMQLEDLKQQLQQAEEALVAKQEVIDKLKEEAEQHKIVMETVPVLKAQADIYKADFQAERQAREKLAEKKELLQEQLEQLQREYSKLKASAQESARIEDMRKRHVEVSQAPLPPAPAYLSSPLALPSQRRSPPEEPPDFCCPKCQYQAPDMDTLQIHVMECIE

Tests used:
[1] = target: IKKβ 701-745 (Homo sapiens) (UniProt O14920); experiment: SPR; details: cited from earlier work
[2] = target: IKKβ 680-756 (Homo sapiens) (UniProt O14920); experiment: SPR; details: cited from earlier work
[3] = target: IKKβ 680-756 (Homo sapiens) (UniProt O14920); experiment: ITC; details: cited from earlier work
[4] = target: the molecule itself; experiment: cross-linking
[5] = target: the molecule itself; experiment: cross-linking; remark: listed apart in the source
[6] = target: the molecule itself; experiment: fluorescence polarisation

Sequence of IKKβ 680-756 (Homo sapiens) (O14920 680-756): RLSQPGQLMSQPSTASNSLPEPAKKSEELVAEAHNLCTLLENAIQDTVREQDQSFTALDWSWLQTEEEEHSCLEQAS
Sequence of IKKβ 701-745 (Homo sapiens) (O14920 701-745): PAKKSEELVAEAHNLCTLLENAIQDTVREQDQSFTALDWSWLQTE

Row | Molecule | stoichiometry N [4] | also measured
1 | NEMO 2-200 (from UniProt Q9Y6K9) | – | Kd [1]: 76 nM
2 | NEMO 38-196 (from UniProt Q9Y6K9) | – | Kd [2]: 3.4 nM; Kd [3]: 1000 nM
3 | B1 | 2 | –
4 | B2 | 2 | –
5 | B3 | 2 | –
6 | B4 | – | stoichiometry N [5]: 2
7 | B5 | 2 | –
8 | B6 | 2 | –
9 | B7 | 2 | Kd [6]: < 5 nM
